{"source": "patent US20060073152A1", "about": "(Genentech, published 2006)", "key": {"[1]": {"target": "T1, rat serum albumin (rat, UniProt P02770 25-608)", "T1 construct": "also called Rat SA; RSA", "T1 sequence (P02770 25-608 limits assumed)": "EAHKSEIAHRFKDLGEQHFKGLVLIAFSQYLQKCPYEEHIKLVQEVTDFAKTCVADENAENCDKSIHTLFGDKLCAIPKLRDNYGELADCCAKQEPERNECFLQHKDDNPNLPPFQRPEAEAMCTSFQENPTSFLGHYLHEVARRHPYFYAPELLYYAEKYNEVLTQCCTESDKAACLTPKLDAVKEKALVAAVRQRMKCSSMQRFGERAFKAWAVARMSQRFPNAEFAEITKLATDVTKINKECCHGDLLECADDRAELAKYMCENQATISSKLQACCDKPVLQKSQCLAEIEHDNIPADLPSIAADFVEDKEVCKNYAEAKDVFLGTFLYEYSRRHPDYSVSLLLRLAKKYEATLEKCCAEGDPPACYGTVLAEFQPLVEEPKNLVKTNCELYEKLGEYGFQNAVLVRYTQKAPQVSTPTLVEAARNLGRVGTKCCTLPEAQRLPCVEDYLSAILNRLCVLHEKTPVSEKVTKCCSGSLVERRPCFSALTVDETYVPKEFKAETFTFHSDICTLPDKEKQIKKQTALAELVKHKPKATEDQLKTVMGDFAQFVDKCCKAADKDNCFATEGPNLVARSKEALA", "test": "phage binding"}, "[2]": {"target": "T2, rabbit serum albumin (rabbit, UniProt P49065 25-608)", "T2 construct": "also called Rabbit SA; BuSA", "T2 sequence (P49065 25-608 limits assumed)": "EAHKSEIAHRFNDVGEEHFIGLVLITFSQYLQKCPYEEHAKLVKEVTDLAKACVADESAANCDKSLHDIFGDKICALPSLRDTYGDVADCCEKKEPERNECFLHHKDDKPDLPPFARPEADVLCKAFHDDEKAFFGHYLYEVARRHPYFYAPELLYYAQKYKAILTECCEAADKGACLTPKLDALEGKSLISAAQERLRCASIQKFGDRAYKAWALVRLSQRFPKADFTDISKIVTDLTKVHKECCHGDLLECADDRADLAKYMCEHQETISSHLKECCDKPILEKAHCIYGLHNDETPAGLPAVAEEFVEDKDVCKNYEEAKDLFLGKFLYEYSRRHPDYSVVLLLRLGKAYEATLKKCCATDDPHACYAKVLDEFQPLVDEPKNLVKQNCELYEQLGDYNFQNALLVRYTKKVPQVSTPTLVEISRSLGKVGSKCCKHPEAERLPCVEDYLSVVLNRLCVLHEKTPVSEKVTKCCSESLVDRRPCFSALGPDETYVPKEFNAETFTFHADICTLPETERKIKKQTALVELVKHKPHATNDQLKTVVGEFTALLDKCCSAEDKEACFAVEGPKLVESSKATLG", "test": "peptide competition for albumin"}, "[3]": {"target": "T1, rat serum albumin", "test": "peptide competition for albumin"}, "[4]": {"target": "T3, mouse serum albumin (mouse, UniProt P07724 25-608)", "T3 construct": "also called Mouse SA; MuSA", "T3 sequence (P07724 25-608 limits assumed)": "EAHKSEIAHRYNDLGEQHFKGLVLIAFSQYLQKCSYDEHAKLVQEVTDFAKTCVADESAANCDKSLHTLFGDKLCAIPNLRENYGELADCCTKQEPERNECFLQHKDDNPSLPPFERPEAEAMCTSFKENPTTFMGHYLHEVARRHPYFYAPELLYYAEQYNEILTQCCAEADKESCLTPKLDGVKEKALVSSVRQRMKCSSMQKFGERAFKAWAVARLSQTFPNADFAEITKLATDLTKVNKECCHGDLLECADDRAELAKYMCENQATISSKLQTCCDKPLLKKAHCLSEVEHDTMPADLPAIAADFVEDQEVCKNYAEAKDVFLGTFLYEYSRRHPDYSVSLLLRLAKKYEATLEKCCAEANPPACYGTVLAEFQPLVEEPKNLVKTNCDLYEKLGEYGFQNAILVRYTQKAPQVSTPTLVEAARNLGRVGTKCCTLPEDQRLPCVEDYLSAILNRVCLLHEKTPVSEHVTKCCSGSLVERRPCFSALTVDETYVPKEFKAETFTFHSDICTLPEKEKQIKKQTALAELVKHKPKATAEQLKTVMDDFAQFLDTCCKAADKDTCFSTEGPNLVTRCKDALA", "test": "SA08 peptide competition"}, "[5]": {"target": "T2, rabbit serum albumin", "test": "SA08 peptide competition"}, "[6]": {"target": "T2, rabbit serum albumin", "test": "peptide competition; head prints RSA, read as rabbit"}, "[7]": {"target": "T2, rabbit serum albumin", "test": "SPR (BIAcore), albumin on the chip"}, "[8]": {"target": "T2, rabbit serum albumin", "test": "phage binding"}, "[9]": {"target": "T1, rat serum albumin", "test": "phage binding", "remark": "listed apart in the source"}, "[10]": {"target": "T4, human serum albumin (human, UniProt P02768 25-609)", "T4 construct": "also called Human SA; HuSA", "test": "phage binding"}, "[11]": {"target": "T3, mouse serum albumin", "test": "peptide competition for albumin"}, "[12]": {"target": "T4, human serum albumin", "test": "phage binding", "remark": "listed apart in the source"}, "[13]": {"target": "T1, rat serum albumin", "test": "SPR (BIAcore), albumin on the chip"}, "[14]": {"target": "T4, human serum albumin", "test": "SPR (BIAcore), albumin on the chip"}, "[15]": {"target": "T2, rabbit serum albumin", "test": "phage binding", "remark": "listed apart in the source"}}, "note": "Read-outs that look alike come from different tables or passages of the source. Positions of bridges follow the written chain, without caps; N, C: chain ends. No end group written: not given here."}
{"binder": "DLCLRDWGCLW (on phage; also called Library RC)", "note": "[RC]", "values": [{"measurement": "binding result", "setting": "[1]", "value": "binds"}]}
{"binder": "Ac-RLMEDICLPRWGCLWEDD-NH2 (cysteine pairing not given here, free peptide)", "note": "[SA10]", "values": [{"measurement": "IC50", "setting": "[2]", "value": 86, "unit": "nM"}, {"measurement": "IC50", "setting": "[3]", "value": 77, "unit": "nM"}]}
{"binder": "Ac-RLIEDICLPRWGCLWEDD-NH2 (cysteine pairing not given here, free peptide)", "note": "[SA21]", "values": [{"measurement": "IC50", "setting": "[4]", "value": 7, "unit": "nM"}, {"measurement": "IC50", "setting": "[5]", "value": 270, "unit": "nM"}, {"measurement": "IC50", "setting": "[6]", "value": 270, "unit": "nM"}, {"measurement": "Kd", "setting": "[7]", "value": 320, "unit": "nM"}]}
{"binder": "HSQMEDICLPRWGCLWGDEL (not fully specified (bridges); cysteine pairing not given here, on phage)", "note": "[RB-B8]", "values": [{"measurement": "binding result", "setting": "[8]", "value": "binds"}, {"measurement": "binding result", "setting": "[9]", "value": "binds"}, {"measurement": "binding result", "setting": "[10]", "value": "binds"}]}
{"binder": "MEDICLPRWGCLWED-NH2 (not fully specified (bridges); cysteine pairing not given here, free peptide)", "note": "[SA05]", "values": [{"measurement": "IC50", "setting": "[11]", "value": 6, "unit": "nM"}, {"measurement": "IC50", "setting": "[2]", "value": 804, "unit": "nM"}, {"measurement": "IC50", "setting": "[3]", "value": 161, "unit": "nM"}]}
{"binder": "RAPESFVCYWETICFERSEQ (on phage; also called Library HB)", "note": "[HB]", "values": [{"measurement": "binding result", "setting": "[12]", "value": "binds"}]}
{"binder": "QRLMEDICLPRWGCLWEDDF-NH2 (disulfide 8-14 (inferred))", "note": "[SA06]", "values": [{"measurement": "IC50", "setting": "[11]", "value": 8, "unit": "nM"}, {"measurement": "IC50", "setting": "[2]", "value": 128, "unit": "nM"}, {"measurement": "IC50", "setting": "[3]", "value": 68, "unit": "nM"}]}
{"binder": "QRHPEDICLPRWGCLWGDDD (on phage)", "note": "[RB-H1]", "values": [{"measurement": "binding result", "setting": "[8]", "value": "binds"}, {"measurement": "binding result", "setting": "[9]", "value": "binds"}, {"measurement": "binding result", "setting": "[10]", "value": "binds"}]}
{"binder": "GEWWEDICLPRWGCLWEEED-NH2 (not fully specified (bridges); printed as GEWWEDICLPRWGCLWEEED-NH2; cysteine pairing not given here, free peptide)", "note": "[SA15]", "values": [{"measurement": "IC50", "setting": "[4]", "value": 5, "unit": "nM"}, {"measurement": "IC50", "setting": "[5]", "value": 13, "unit": "nM"}, {"measurement": "Kd", "setting": "[7]", "value": 65, "unit": "nM"}, {"measurement": "Kd", "setting": "[13]", "value": 150, "unit": "nM"}, {"measurement": "Kd", "setting": "[14]", "value": 878, "unit": "nM"}]}
{"binder": "QWQMENVCLPKWGCLWEELD (not fully specified (bridges); cysteine pairing not given here; also: phage-displayed, on phage)", "note": "[RB-B6]", "values": [{"measurement": "binding result", "setting": "[8]", "value": "binds"}, {"measurement": "binding result", "setting": "[9]", "value": "binds"}, {"measurement": "binding result", "setting": "[10]", "value": "binds"}]}
{"binder": "QWQVMDICLPRWGCLWADEY (not fully specified (bridges); cysteine pairing not given here; also: phage-displayed, on phage)", "note": "[RB-B11]", "values": [{"measurement": "binding result", "setting": "[8]", "value": "binds"}, {"measurement": "binding result", "setting": "[9]", "value": "binds"}, {"measurement": "binding result", "setting": "[10]", "value": "binds"}]}
{"binder": "Ac-MEDICLPRWGCLWED-NH2 (not fully specified (bridges); cysteine pairing not given here, free peptide)", "note": "[SA12]", "values": [{"measurement": "IC50", "setting": "[11]", "value": 13, "unit": "nM"}, {"measurement": "IC50", "setting": "[2]", "value": 1760, "unit": "nM"}, {"measurement": "IC50", "setting": "[3]", "value": 205, "unit": "nM"}]}
{"binder": "NRQMEDICLPQWGCLWGDDF (on phage)", "note": "[RB-H6]", "values": [{"measurement": "binding result", "setting": "[8]", "value": "binds"}, {"measurement": "binding result", "setting": "[9]", "value": "binds"}, {"measurement": "binding result", "setting": "[10]", "value": "binds"}]}
{"binder": "RNEDPCVVLLEMGLECWEGV (not fully specified (bridges); cysteine pairing not given here; also: phage-displayed, on phage)", "note": "[RA]", "values": [{"measurement": "binding result", "setting": "[1]", "value": "binds"}]}
{"binder": "KSCSELHWLLVEECLF (not fully specified (bridges); cysteine pairing not given here, on phage)", "note": "[BD]", "values": [{"measurement": "binding result", "setting": "[15]", "value": "binds"}]}
{"binder": "Ac-MEDICLPRWGCLWEDD-NH2 (not fully specified (bridges); cysteine pairing not given here, free peptide)", "note": "[SA11]", "values": [{"measurement": "IC50", "setting": "[11]", "value": 17, "unit": "nM"}, {"measurement": "IC50", "setting": "[2]", "value": 1210, "unit": "nM"}, {"measurement": "IC50", "setting": "[3]", "value": 232, "unit": "nM"}]}
{"binder": "QGLIGDICLPRWGCLWGDSV-NH2 (not fully specified (bridges); cysteine pairing not given here, free peptide)", "note": "[SA07]", "values": [{"measurement": "IC50", "setting": "[11]", "value": 6, "unit": "nM"}, {"measurement": "IC50", "setting": "[2]", "value": 30, "unit": "nM"}, {"measurement": "IC50", "setting": "[3]", "value": 35, "unit": "nM"}]}
{"binder": "DLCDVDFCWF (on phage)", "note": "[BC]", "values": [{"measurement": "binding result", "setting": "[15]", "value": "binds"}]}
{"binder": "DTCVDLVRLGLECWG (on phage; also called Library RD)", "note": "[RD]", "values": [{"measurement": "binding result", "setting": "[1]", "value": "binds"}]}
{"binder": "EVRSFCTDWPAEKSCKPLRG (on phage; also called Library HA)", "note": "[HA]", "values": [{"measurement": "binding result", "setting": "[12]", "value": "binds"}]}
{"binder": "LWAMEDICLPKWGCLWEDDF (on phage)", "note": "[RB-B4]", "values": [{"measurement": "binding result", "setting": "[8]", "value": "binds"}, {"measurement": "binding result", "setting": "[9]", "value": "binds"}, {"measurement": "binding result", "setting": "[10]", "value": "binds"}]}
{"binder": "GENWCDSTLMAYDLCGQVNM (on phage; also called Library BA)", "note": "[BA]", "values": [{"measurement": "binding result", "setting": "[15]", "value": "binds"}]}
{"binder": "CGCVDVSDWDCWSECLWSHGA (on phage)", "note": "[RE]", "values": [{"measurement": "binding result", "setting": "[1]", "value": "binds"}]}
{"binder": "LRLMDNICLPRWGCLWDDGF (not fully specified (bridges); cysteine pairing not given here, on phage)", "note": "[RB-B7]", "values": [{"measurement": "binding result", "setting": "[8]", "value": "binds"}, {"measurement": "binding result", "setting": "[9]", "value": "binds"}, {"measurement": "binding result", "setting": "[10]", "value": "binds"}]}
{"binder": "Ac-QGLIGDICLPRWGCLWGDSVK-NH2 (cysteine pairing not given here, free peptide)", "note": "[SA08]", "values": [{"measurement": "IC50", "setting": "[4]", "value": 12, "unit": "nM"}, {"measurement": "IC50", "setting": "[11]", "value": 10, "unit": "nM"}, {"measurement": "IC50", "setting": "[2]", "value": 63, "unit": "nM"}, {"measurement": "IC50", "setting": "[3]", "value": 68, "unit": "nM"}, {"measurement": "Kd", "setting": "[7]", "value": 108, "unit": "nM"}, {"measurement": "Kd", "setting": "[13]", "value": 158, "unit": "nM"}, {"measurement": "Kd", "setting": "[14]", "value": 858, "unit": "nM"}]}
{"binder": "Ac-EDICLPRWGCLWEDD-NH2 (not fully specified (bridges); cysteine pairing not given here, free peptide)", "note": "[SA09]", "values": [{"measurement": "IC50", "setting": "[11]", "value": 6, "unit": "nM"}, {"measurement": "IC50", "setting": "[2]", "value": 1690, "unit": "nM"}, {"measurement": "IC50", "setting": "[3]", "value": 258, "unit": "nM"}]}
{"binder": "EMCYFPGICWM (on phage; also called Library HC)", "note": "[HC]", "values": [{"measurement": "binding result", "setting": "[1]", "value": "binds"}, {"measurement": "binding result", "setting": "[12]", "value": "binds"}]}
{"binder": "MDELAFYCGIWECLMHQEQK (on phage)", "note": "[BB]", "values": [{"measurement": "binding result", "setting": "[15]", "value": "binds"}]}
{"binder": "QWHMEDICLPQWGCLWGDVL (on phage)", "note": "[RB-B5]", "values": [{"measurement": "binding result", "setting": "[8]", "value": "binds"}, {"measurement": "binding result", "setting": "[9]", "value": "binds"}, {"measurement": "binding result", "setting": "[10]", "value": "binds"}]}
{"binder": "DICLPRWGCLW-NH2 (not fully specified (bridges); cysteine pairing not given here, free peptide)", "note": "[SA04]", "values": [{"measurement": "IC50", "setting": "[11]", "value": 40, "unit": "nM"}, {"measurement": "IC50", "setting": "[2]", "value": 8540, "unit": "nM"}, {"measurement": "IC50", "setting": "[3]", "value": 787, "unit": "nM"}, {"measurement": "IC50", "setting": "[6]", "value": 8540, "unit": "nM"}]}
{"binder": "QRQMVDFCLPQWGCLWGDGF (on phage; also called Library RB)", "note": "[RB]", "values": [{"measurement": "binding result", "setting": "[15]", "value": "binds"}, {"measurement": "binding result", "setting": "[1]", "value": "binds"}, {"measurement": "binding result", "setting": "[12]", "value": "binds"}]}
